This passage reports stoichiometry N (RNase E microdomain per enolase dimer) results from publication PMC2935283.

Assay [1] has as its target Escherichia coli enolase (E. coli) (UniProt P0A6P9). Briefly: native MS; enolase mixed with the microdomain in a 1:1.5 molar ratio, room temperature, 20 min; nanoflow ESI, tandem nondissociating QTOF-MS/MS.
The target is the same in assay [2]. Briefly: crystal structure; enolase and microdomain mixed in a 1:1.5 molar ratio on ice for 20 min; sitting drop, 0.1 M HEPES pH 7.0, 1.6 M ammonium sulfate, 293 K; 1.9 A.

Escherichia coli enolase (E. coli), sequence (P0A6P9 whole entry): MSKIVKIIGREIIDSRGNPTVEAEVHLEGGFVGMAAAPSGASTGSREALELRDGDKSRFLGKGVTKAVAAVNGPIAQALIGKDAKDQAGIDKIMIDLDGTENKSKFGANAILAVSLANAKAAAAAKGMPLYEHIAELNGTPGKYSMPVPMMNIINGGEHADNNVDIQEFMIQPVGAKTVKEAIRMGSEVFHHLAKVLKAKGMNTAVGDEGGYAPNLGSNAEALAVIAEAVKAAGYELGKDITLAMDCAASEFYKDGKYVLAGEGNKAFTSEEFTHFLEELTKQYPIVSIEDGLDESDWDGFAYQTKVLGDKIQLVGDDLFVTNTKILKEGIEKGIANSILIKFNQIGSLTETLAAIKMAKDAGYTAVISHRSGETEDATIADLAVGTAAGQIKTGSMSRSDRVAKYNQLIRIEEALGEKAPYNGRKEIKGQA

For “RNase E recognition microdomain (residues 823-850) (peptide)”, the stoichiometry N (RNase E microdomain per enolase dimer) in assay [1] and in assay [2] was 1 each time.
